US8431161B2, “Microparticle and pharmaceutical composition thereof” (Toray Industries, Inc., priority 2008, dated 2013)
Where two headings read alike, the source gives them in different places.

Tests used:
[1] = Hypodermic administration of Exendin-4-encapsulating microparticles in SCID mouse, Exendin-4 in plasma; type: in vivo; conditions: 700 μg/0.2 ml
Description: (§1) The supernatant was centrifugally separated again for 5 minutes at 80×g, and the remaining particles were precipitated, and the supernatant was removed.
This solution was hypodermically injected in the back of 8-week-old SCID mouse (CB17/lcr-Prkdcscid/CrlCrlk) (from Crea Japan Inc.), and the blood was sampled at specific intervals from the caudal vein.

[2] = mouse, in vivo
Description: as §1

[3] = Body weight changes of pituitary gland extracted mouse after hGH microparticles; type: in vivo; conditions: hypodermic administration
[4] = mouse, in vivo; remark: listed apart in the source
Description: 300 mg of the prepared microparticles was suspended and dispersed in 3 ml of phosphate physiological buffer solution (PBS), and centrifuged for 5 minutes at 80×g to precipitate microparticles, and the supernatant was transferred into other tube. The supernatant was centrifuged again for 5 minutes at 80×g to precipitate the remaining particles, and the supernatant was removed. By re-dispersing in 1 ml of PBS after first time of centrifugal precipitation and second time of centrifugal precipitation, the same centrifugal cleaning operation was repeated three times, and the growth hormone not encapsulated in the microparticles were removed. Finally, the precipitation was dispersed again in 200 μl of PBS, and an administration solution was obtained.
This solution was injected hypodermically at two positions in the back of 10-week male Balb/C mouse, and the blood was sampled at specific time intervals from the caudal vein. In the sampled blood, heparin of final concentration of 3.31 U/ml was added, and plasma was collected by centrifugal separation for 5 minutes at 5,000 rpm, and the concentration of growth hormone in plasma was measured by using an ELISA kit.
By way of comparison, a non-granulated human growth hormone protein solution (700 μg/0.2 ml) was hypodermically administered in mouse, and the blood was sampled similarly. […]

Row | Substance | blood level in 1 hour after administration (Exendin-4 in plasma) [1] | time in which blood level dropped to a level before administration [2] | body weight increase [3] | time in which blood level dropped to a level before administration [4]
1 | Exendin-4 [non-granulated Exendin-4] | very high | a day | – | –
2 | human growth hormone [non-granulated human growth hormone] | – | – | about 5% | a day
